From PMC12002316 (Proceedings of the National Academy of Sciences of the …, 2025)

Target: the molecule itself
Test: cryo-EM structure

B1: Chloroflexus aurantiacus F1FO ATP synthase c-subunit (natural protein, Chloroflexus aurantiacus J-10-fl, UniProt A9WGS9 1-76, looked up)
chain: MEGLNLVATALAVGLGAIGPGVGIGIIVSGAVQAIGRNPEIENRVVTYMFIGIAFTEALAIFGLVIAFLIGFGVLQ
With B1 the “stoichiometry N” value was 10.
